These results are taken from article PMC11192940.

The Kd is the constant that tells how readily two partners part at equilibrium. Read a high Kd as weaker binding.

The experiment deals with GST-Rheb protein (UniProt Q15382). The experiment in a line: BLI. In general terms: In BLI a coated tip is dipped into the sample, and binding shifts an interference pattern.
Sequence of GST-Rheb protein (Q15382 1-169): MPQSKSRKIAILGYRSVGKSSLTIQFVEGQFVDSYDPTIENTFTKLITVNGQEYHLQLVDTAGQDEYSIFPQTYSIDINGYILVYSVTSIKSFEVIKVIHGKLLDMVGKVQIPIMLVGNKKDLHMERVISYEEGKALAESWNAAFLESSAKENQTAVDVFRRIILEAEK

“His-IL-37d, recombinant human IL-37d protein with a TAT peptide (pET-22b-TAT-his-IL-37d; mature IL-37d 21–197aa) (from UniProt Q9NZH6-4 21-197)” had a Kd of 54.2 nM. That is a double-digit nanomolar value.
